The target of assay [1] is T1, GII.4/Yerseke VLP (norovirus Hu/GII.4/Yerseke38/2006/NL, UniProt P54635 1-539).
T1 construct: also called Hu/GII.4/Yerseke38/2006/NL
T1 chain: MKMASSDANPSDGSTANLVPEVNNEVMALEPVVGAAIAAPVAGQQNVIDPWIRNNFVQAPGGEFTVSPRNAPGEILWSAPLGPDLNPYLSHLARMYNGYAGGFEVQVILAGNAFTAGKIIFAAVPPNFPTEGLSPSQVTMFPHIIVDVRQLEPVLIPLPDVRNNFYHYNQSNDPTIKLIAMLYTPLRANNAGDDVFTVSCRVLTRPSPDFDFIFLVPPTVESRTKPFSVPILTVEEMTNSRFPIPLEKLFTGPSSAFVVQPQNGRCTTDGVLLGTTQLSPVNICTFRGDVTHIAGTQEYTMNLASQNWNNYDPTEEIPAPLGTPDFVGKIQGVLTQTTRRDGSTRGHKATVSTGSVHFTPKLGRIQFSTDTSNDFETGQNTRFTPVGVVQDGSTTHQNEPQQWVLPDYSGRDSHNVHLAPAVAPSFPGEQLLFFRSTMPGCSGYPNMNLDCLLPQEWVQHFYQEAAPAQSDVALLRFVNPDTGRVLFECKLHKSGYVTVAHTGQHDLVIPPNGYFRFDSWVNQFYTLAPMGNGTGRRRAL
The experiment in a line: PGM blockade assay, serially diluted mAb.
Experimental: Plates were washed 3 times with PBST before use. […] The mixture was transferred to the PGM-coated plates including VLP-only controls and incubation carried out for 1 h at 22° C. or 37° C. Following 3 washes with PBST, detection antibody specific for the corresponding VLP was added and the plates were incubated at room temperature for 1 h and then washed 3 times with PBST. […] Following 3 washes, enzyme substrate (ABTS, KPL) was added and allowed to react for 12 min at room temperature. ABTS Peroxidase Stop Solution (KPL) was then added and plates were read at a wavelength of 450 nm in a Molecular Devices plate reader using SoftMax Pro Software (Molecular Devices, Downingtown, PA, USA) to obtain the Optical Density (GD) of each well.
The following, day corresponding dilutions incubated with VLPs were transferred to the PGM-coated plates. The OD data was curve fit and blocking titers were calculated as the supernatant dilution interpolated at 1/2 the maximum OD for the plate. The blocking titers represent the supernatant dilution that produces a 50% reduction in VLP binding to PGM. The maximum OD for the plate was calculated from the VLP only control.

The target of assay [2] is T2, GI.5 VLP (norovirus …).
T2 construct: also called GI.5 Siklos
T2 chain: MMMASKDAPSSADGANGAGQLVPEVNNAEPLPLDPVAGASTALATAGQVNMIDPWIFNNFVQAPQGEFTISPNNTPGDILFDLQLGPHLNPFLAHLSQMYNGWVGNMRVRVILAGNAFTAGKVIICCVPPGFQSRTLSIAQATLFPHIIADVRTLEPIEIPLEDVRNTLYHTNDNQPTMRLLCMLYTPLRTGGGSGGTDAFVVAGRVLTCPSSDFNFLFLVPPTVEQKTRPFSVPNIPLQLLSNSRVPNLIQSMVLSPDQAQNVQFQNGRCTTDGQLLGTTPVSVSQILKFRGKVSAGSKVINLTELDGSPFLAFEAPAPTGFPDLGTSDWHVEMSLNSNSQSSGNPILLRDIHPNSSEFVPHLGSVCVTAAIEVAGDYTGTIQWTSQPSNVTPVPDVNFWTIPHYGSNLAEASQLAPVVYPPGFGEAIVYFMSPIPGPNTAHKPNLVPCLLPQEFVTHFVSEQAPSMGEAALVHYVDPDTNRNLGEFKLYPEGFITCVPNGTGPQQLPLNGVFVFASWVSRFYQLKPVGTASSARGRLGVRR
The experiment in a line: multiplex microsphere immunoassay.

Assay [3] concerns the target T3, GI.4 VLP (norovirus Hu/GI.4/1643/2008/US).
T3 construct: also called GI.4 US
T3 chain: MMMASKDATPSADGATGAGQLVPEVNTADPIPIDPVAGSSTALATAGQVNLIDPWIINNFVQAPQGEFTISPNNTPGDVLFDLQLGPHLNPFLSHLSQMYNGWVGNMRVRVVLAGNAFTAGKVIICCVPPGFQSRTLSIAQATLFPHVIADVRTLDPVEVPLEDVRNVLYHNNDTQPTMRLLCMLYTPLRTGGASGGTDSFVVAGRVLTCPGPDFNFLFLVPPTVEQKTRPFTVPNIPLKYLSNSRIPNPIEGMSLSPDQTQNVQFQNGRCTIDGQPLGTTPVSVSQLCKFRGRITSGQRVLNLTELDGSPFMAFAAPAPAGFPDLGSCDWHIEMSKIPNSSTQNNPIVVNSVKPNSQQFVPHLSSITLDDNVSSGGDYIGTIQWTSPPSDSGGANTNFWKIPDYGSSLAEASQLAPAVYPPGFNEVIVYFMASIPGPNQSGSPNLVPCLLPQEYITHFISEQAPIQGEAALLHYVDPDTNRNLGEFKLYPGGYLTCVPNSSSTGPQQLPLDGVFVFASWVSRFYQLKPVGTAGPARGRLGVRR
The experiment in a line: multiplex microsphere immunoassay.

The target in assay [4] is T4, GI.1 VLP (norovirus Hu/GI.1/Norwalk/1968/US, UniProt Q83884 1-530).
T4 construct: also called GI.1 Norwalk; GI.I/Norwalk VLP
T4 sequence: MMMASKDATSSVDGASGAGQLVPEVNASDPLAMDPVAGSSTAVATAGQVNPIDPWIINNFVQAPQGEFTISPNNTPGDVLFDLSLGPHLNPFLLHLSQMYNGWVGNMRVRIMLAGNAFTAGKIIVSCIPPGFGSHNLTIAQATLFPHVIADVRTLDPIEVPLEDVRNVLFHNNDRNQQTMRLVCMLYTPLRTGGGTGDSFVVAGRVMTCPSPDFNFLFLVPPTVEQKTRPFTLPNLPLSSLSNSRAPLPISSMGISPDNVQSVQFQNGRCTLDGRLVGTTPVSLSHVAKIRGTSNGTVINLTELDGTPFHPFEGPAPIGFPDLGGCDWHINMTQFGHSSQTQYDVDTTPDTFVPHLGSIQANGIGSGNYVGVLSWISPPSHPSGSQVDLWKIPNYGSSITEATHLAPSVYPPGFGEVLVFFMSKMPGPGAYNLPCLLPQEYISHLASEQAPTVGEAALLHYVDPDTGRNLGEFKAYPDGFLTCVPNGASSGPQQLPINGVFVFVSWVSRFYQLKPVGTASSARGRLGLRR
The experiment in a line: multiplex microsphere immunoassay.

Assay [5] addresses T5, GI.7 VLP (norovirus Hu/GI.7/Providence191/2010/USA).
T5 construct: also called GI.7 Providence
T5 chain: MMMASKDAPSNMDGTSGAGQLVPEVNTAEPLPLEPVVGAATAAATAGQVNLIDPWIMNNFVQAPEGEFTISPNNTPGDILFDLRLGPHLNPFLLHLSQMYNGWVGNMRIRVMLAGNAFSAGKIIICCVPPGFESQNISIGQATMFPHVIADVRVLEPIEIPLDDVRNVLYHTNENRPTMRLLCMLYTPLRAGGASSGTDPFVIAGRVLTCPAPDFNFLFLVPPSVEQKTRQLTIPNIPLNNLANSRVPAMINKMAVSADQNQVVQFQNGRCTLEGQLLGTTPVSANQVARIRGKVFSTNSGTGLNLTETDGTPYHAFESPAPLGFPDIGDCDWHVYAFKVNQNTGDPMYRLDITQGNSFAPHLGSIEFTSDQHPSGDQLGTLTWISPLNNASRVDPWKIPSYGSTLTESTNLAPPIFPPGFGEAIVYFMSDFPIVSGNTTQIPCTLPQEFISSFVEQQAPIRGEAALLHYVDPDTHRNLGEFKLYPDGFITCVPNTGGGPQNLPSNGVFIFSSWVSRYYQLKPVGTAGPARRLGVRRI
The experiment in a line: multiplex microsphere immunoassay.

B1: human mAb 1431 (antibody, V domains shown)
VH: QVQLVQSGGGLVQPGGSLRLSCAASGFAFSNHGMHWVRQAPGKGLEWLSYISGSTGAIHYANSVKGRFTISRDNARNSLDLQMNSLGDEDTAVYYCARDGPRPDGTGYAGPSNDYWGQGTLVSVSS
VL: EIVLTQSPASLSLSPGERATLSCKASRSISIYLAWYQQKPGQAPRLLIYDASYRAIGIPARFSGSGSGTDFTLTISNLEPEDFAVYYCQHRSSWPALTFGGGTKVEI
notes: also called A1431
Molecule B1 yielded a blocking titer in assay [1] of 4850.

B2: human mAb 1431 (antibody, V domains shown)
VH: B1 VH
VL: B1 VL
notes: also called A1431
Turning to B2, the binding result in assay [2], in assay [3], in assay [4] and in assay [5] was “no binding” each time.

The values are drawn from patent publication US20240402174A1 (Takeda / Millennium, published 2024).
